In paper PMC12658140 (2025):

How the values were obtained:
Assay in all cases: BLI
H3 stem with T32HA2 = H3 stem with T32HA2 (influenza A virus H3N2 …)
H3 stem with R32HA2 = H3 stem with R32HA2 (influenza A virus H3N2 …)
H3 stem with I32HA2 = H3 stem with I32HA2 (influenza A virus H3N2 …)

B1: 240-14 IgA 2F02 Fab (Fab, V domains shown)
VH: EVQLLESGGGLVQPGGSLRLSCAASGFTFSTYAMSWVRQAPGKGLEWVSTISGSGGSTYDAESVKGRFTISRDNSKNTLYLQMNSLRAEDTAVYYCAKEGGDFWSGYYANWFDPWGQGTLVTVSS
VL: QSALTQPRSVSGSPGQSVTISCTGTRSDVGGYNYVSWYQQHPGKAPKVIIYDVKKRPSGVPDRFSGSKSGNTASLTISGLQAEDEADYYCSAFAGSHTLFGGGTKVTVL
Work on B1 yielded a Kd (H3 stem with T32HA2) of 17 nM, a Kd (H3 stem with R32HA2) of 28 nM and a Kd (H3 stem with I32HA2) of 22 nM.
